In patent US20230393125A1 (Hoffmann-La Roche, published 2023):

Biological target: T1, recombinant cynomolgus CCL2 (cynomolgus monkey, UniProt P61274 24-99)
T1 construct: also called cyCCL2; cynomolgus monkey CCL2
Experiment: Gyrolab sandwich assay; detection reagent
Description: A Gyrolab™ based method was used in this example. Recombinant cynomolgus CCL2 samples were prepared in assay buffer (PBS, 0.1% (v/v) Tween-20, 1% BSA) and analyzed on a Gyrolab Xplore. […] All reagents and samples were transferred to a 96-well PCR plate and loaded into the instrument together with a Gyrolab BioAffy 200 nL disc (Gyros Protein Technologies AB). A three-step assay protocol (200-3W-001) was selected. […] Each reagent reaches the column at the same time after a short spinning step is applied to the disc. The columns were washed with PBS with 0.05 Tween after each step and finally laser induced fluorescence values were recorded within the instrument. A non-linear 4-parameter curve-fitting function (Wiemer-Rodbard) was applied to the averaged raw data to obtain a calibration curve.

- binding result: binds
B1: humanized anti-CCL2 antibody 11K2 (CCL2-0002) (antibody, V domains shown)
VH: QVQLVQSGAEVKKPGSSVKVSCKASGLTISDTYMHWVRQAPGQGLEWMGRIDPANGNTKFDPKFQGRVTITADTSTSTAYMELSSLRSEDTAVYYCARGVFGFFDYWGQGTTVTVSS
VL: DIQMTQSPSSLSASVGDRVTITCKATEDIYNRLAWYQQKPGKAPKLLISGATSLETGVPSRFSGSGSGTDYTLTISSLQPEDFATYYCQQFWSAPYTFGGGTKVEIK
modifications: Used as a digoxigenin or Alexa 647 conjugate; conjugation sites not stated.
notes: Detection reagent; also called Humanized 11K2; 11K2-Dig
